{"source": "patent US20110165161A1", "about": "“ANTI-EPCAM ANTIBODIES THAT INDUCE APOPTOSIS OF CANCER CELLS AND METHODS USING SAME” (priority 2009, published 2011)", "molecules": {"B1": {"name": "12H8: murine anti-human EpCAM monoclonal antibody (IgG2a, K), hybridoma m342-12H8.3; VH SEQ ID NO:3, VL SEQ ID NO:5 (antibody, listed as Mus musculus, V domains shown)", "VH": "QIQLVQSGPELKKPGETVKISCKTSGYTFTDYSMHWVNQAPGKGLKWMGWINTETGEPTYTDDFKGRFAFSLETSASTAYLQINNLKNEDTATYFCARTAVYWGQGTTLTVSS", "VL": "DIQMTQSPSSLSASLGERVSLTCRASQEISGSLSWLQQKPDGTIKRLIYAASTLNSGVPKRFSGRRSGSDYSLTISSLESEDFVDYYCLQYSSYPWSFGGGTKLEIKR"}}, "key": {"[1]": {"system": "Breast cancer T-47D cells", "test": "Antibody cytotoxicity assay (Annexin V + PI), T-47D", "type": "cell-based", "settings": "1, 3 and 10 μg/ml, overnight", "experimental": "(§1) After a 17-20 hr incubation at 37° C., cells were stained with 0.3 μl of FITC-conjugated Annexin V (Strong Biotech Corp. Cat. No. AVK250) in 50 μl Annexin V binding buffer (Strong Biotech Corp. Cat. No. AVK250) at RT for 20 min. After wash, the cells were then stained with 0.3 μl of propidium iodide in 200 μl Annexin V binding buffer. Annexin V and Propidium Iodide were used as a joint indicator for cell death. The data were acquired with BD FACSCalibur based on an acquisition of 3,000-5,000 cells and analyzed with the Cell Quest software. The combined percentages of the Annexin V+/PI+, Annexin V+/PI− and Annexin V−/PI+populations were considered as dead cells."}, "DLD-1 xenograft": {"system": "DLD-1 xenograft", "test": "Colorectal cancer DLD-1 xenograft in SCID mice", "type": "in vivo", "settings": "for tumor volume Mean ± SD: 12.5 mg/kg i.p.", "experimental": "(§2) Whether the in vitro apoptosis-inducing activity of anti-EpCAM antibodies has any in vivo biological relevance was studied in the xenograft model. […] 5×10^6 DLD-1 or 3×10^6 NCI-H358 cells were implanted subcutaneously into the hind flank region of SCID mice (6-7 weeks) on day 0. Treatment by intraperitoneal injection with antibodies at 12.5 mg/kg for DLD-1 or 30 mg/kg for NCI-H358 in 0.1 ml PBS started on day 1 after tumor-cell inoculation and was repeated at days 4, 8, 11, 15, 18, 22 and 25. As control, 9E10 (an mouse anti-myc antibody) at the same dose were used. Five or six mice were used in each group of the experiment. Tumor growth was assessed based on twice-weekly measurement of tumor volume (mm^3) by calipers and the tumor size was calculated using the formula: π/6×larger diameter×(smaller diameter)^2 (Kievit E, Cancer Research, 60:6649-55). Statistical analysis of tumor growth was performed using the Student's t-test."}, "[2]": {"system": "NCI-H358 lung cancer cells", "test": "Cell death in NCI-H358 lung cancer cells (Annexin V + PI)", "type": "cell-based, human", "settings": "mean of 5 experiments; mAb 10 μg/ml; 17 hr", "experimental": "(§3) 5×10^4 NCI-H358 cells were seeded to each well of a 96-well plate, and then 10 μg/ml of anti-EpCAM or control (9E10) mAbs diluted in the medium was added into the cells. After a 17-hr incubation at 37° C., the cells were stained with 0.3 μl of FITC-conjugated Annexin V (Strong Biotech Corp. Cat. No. AVK250) in 50 μl Annexin V binding buffer (Strong Biotech Corp. Cat. No. AVK250) at RT for 20 min. After wash, the cells were then stained with 0.3 μl of propidium iodide in 200 μl Annexin V binding buffer. Annexin V and Propidium Iodide were used as a joint indicator for measuring cell death. The data were acquired with BD FACSCalibur based on an acquisition of 3,000-5,000 cells and analyzed with the Cell Quest software. The combined percentages of the Annexin V+/PI+, Annexin V+/PI− and Annexin V−/PI+populations were considered as dead cells."}, "[3]": {"system": "COLO 205 colon cancer cells", "test": "Cytotoxicity of anti-EpCAM antibodies in combination with oxaliplatin in COLO 205", "type": "cell-based, human", "settings": "24 hr", "experimental": "as §3, with “Oxaliplatin, combined with infusional administration of 2 other chemotherapy drugs, 5-fluorouracil/leucovorin (5-FU/LV), is now considered as one of the as first-line treatments for people with advanced carcinoma of the colon or rectum (André et al. (2004) N Engl J Med 350(23):2343-2351). To test the cytotoxicity of anti-EpCAM antibodies in the presence of oxaliplatin, 1×10^5 COLO 205 cells” for “5×10^4 NCI-H358 cells”, “then 0.03, 0.3 and 3” for “then 10”, “mAbs in combination with oxaliplatin at concentration of 0, 0.01, 0.1, and 1 μg/ml” for “mAbs”, “medium were” for “medium was”, “a 24-hr” for “a 17-hr”"}, "NCI-H358 xenograft": {"system": "NCI-H358 xenograft", "test": "Lung cancer NCI-H358 xenograft in SCID mice", "type": "in vivo", "settings": "for tumor volume Mean ± SD: 30 mg/kg i.p.", "experimental": "as §2"}, "CHO parental cells": {"system": "CHO parental cells", "test": "FACS binding of anti-EpCAM antibodies to CHO parental cells", "set-up": "species or system Chinese hamster", "settings": "antibody 0.1 μg/ml; HPS at 300x dilution", "experimental": "1×10^5 CHO/EpCAM or CHO parental cells were seeded in each well of a v-bottomed 96-well plate and incubated with purified anti-EpCAM antibodies or mouse IgG control antibody 9E10 at concentration of 0.1 μg/ml. A 300× dilution of human cell hyper-immune serum (HPS 300×) was used as binding positive control for both cell lines here. After 1 hr incubation at 4° C., cells were washed twice with 200 μl FACS buffer (1×PBS containing 1% FBS), stained with 100 μl of 1 μg/ml goat-anti-mouse IgG-PE (Southern Biotech, Cat. No. 1032-09) in FACS buffer and then incubated at 4° C. for 30 min. Cells were washed thrice with FACS buffer and analyzed by flow cytometry (BD LSR, BD Life Sciences)."}, "[4]": {"system": "Prostate cancer LNCaP cells", "test": "Antibody cytotoxicity assay (Annexin V + PI), LNCaP", "type": "cell-based", "settings": "1, 3 and 10 μg/ml, overnight", "experimental": "as §1"}, "[5]": {"system": "Lung cancer NCI-H520 cells", "test": "Antibody cytotoxicity assay (Annexin V + PI), NCI-H520", "type": "cell-based", "settings": "1, 3 and 10 μg/ml, overnight", "experimental": "as §1"}, "[6]": {"system": "Gastric cancer NCI-N87 cells", "test": "Antibody cytotoxicity assay (Annexin V + PI), NCI-N87", "type": "cell-based", "settings": "1, 3 and 10 μg/ml, overnight", "experimental": "as §1"}, "[7]": {"system": "Ovarian cancer NIH:OVCAR-3 cells", "test": "Antibody cytotoxicity assay (Annexin V + PI), NIH:OVCAR-3", "type": "cell-based", "settings": "1, 3 and 10 μg/ml, overnight", "experimental": "as §1"}, "[8]": {"system": "Colorectal cancer DLD-1 cells", "test": "Antibody cytotoxicity assay (Annexin V + PI), DLD-1", "type": "cell-based", "settings": "1, 3 and 10 μg/ml, overnight", "experimental": "as §1"}, "[9]": {"system": "Pharynx cancer FaDu cells", "test": "Antibody cytotoxicity assay (Annexin V + PI), FaDu", "type": "cell-based", "settings": "1, 3 and 10 μg/ml, overnight", "experimental": "as §1"}}, "note": "Marks after values point to notes of the source that are not given here."}
{"molecule": "B1", "values": [{"measurement": "Induction of cell death (in words)", "setting": "[1]", "result": "substantial cell death"}, {"measurement": "Inhibition of tumor growth (in words)", "setting": "DLD-1 xenograft; colorectal (DLD-1) xenograft", "result": "efficiently inhibited"}, {"measurement": "tumor volume Mean ± SD", "setting": "DLD-1 xenograft; d29", "result": "296 ± 154* mm^3"}, {"measurement": "tumor volume Mean ± SD", "setting": "DLD-1 xenograft; d32", "result": "396 ± 156* mm^3"}, {"measurement": "tumor volume Mean ± SD", "setting": "DLD-1 xenograft; d36", "result": "521 ± 189* mm^3"}, {"measurement": "tumor volume Mean ± SD", "setting": "DLD-1 xenograft; d39", "result": "619 ± 232* mm^3"}, {"measurement": "tumor volume Mean ± SD", "setting": "DLD-1 xenograft; d43", "result": "727 ± 270* mm^3"}, {"measurement": "tumor volume Mean ± SD", "setting": "DLD-1 xenograft; d46", "result": "839 ± 292* mm^3"}, {"measurement": "tumor volume Mean ± SD", "setting": "DLD-1 xenograft; d49", "result": "898 ± 207* mm^3"}, {"measurement": "% of Annexin V + PI staining (untreated background subtracted), Mean ± SEM", "setting": "[2]", "result": "33.6 ± 2.1", "unit": "%"}, {"measurement": "% of Annexin V + PI staining (untreated background subtracted)", "setting": "[3]; mAb 0.03 μg/ml + oxaliplatin 0.01 μg/ml", "result": 10, "unit": "%"}, {"measurement": "% of Annexin V + PI staining (untreated background subtracted)", "setting": "[3]; mAb 0.03 μg/ml + oxaliplatin 0.1 μg/ml", "result": 9, "unit": "%"}, {"measurement": "% of Annexin V + PI staining (untreated background subtracted)", "setting": "[3]; mAb 0.03 μg/ml + oxaliplatin 1 μg/ml", "result": 14, "unit": "%"}, {"measurement": "% of Annexin V + PI staining (untreated background subtracted)", "setting": "[3]; mAb 0.03 μg/ml, oxaliplatin 0 μg/ml", "result": 9, "unit": "%"}, {"measurement": "% of Annexin V + PI staining (untreated background subtracted)", "setting": "[3]; mAb 0.3 μg/ml + oxaliplatin 1 μg/ml", "result": 35, "unit": "%"}, {"measurement": "% of Annexin V + PI staining (untreated background subtracted)", "setting": "[3]; mAb 0.3 μg/ml, oxaliplatin 0 μg/ml", "result": 20, "unit": "%"}, {"measurement": "% of Annexin V + PI staining (untreated background subtracted)", "setting": "[3]; mAb 3 μg/ml + oxaliplatin 0.01 μg/ml", "result": 22, "unit": "%"}, {"measurement": "% of Annexin V + PI staining (untreated background subtracted)", "setting": "[3]; mAb 3 μg/ml + oxaliplatin 0.1 μg/ml", "result": 26, "unit": "%"}, {"measurement": "% of Annexin V + PI staining (untreated background subtracted)", "setting": "[3]; mAb 3 μg/ml + oxaliplatin 1 μg/ml", "result": 38, "unit": "%"}, {"measurement": "% of Annexin V + PI staining (untreated background subtracted)", "setting": "[3]; mAb 3 μg/ml, oxaliplatin 0 μg/ml", "result": 17, "unit": "%"}, {"measurement": "tumor volume Mean ± SD", "setting": "NCI-H358 xenograft; d46", "result": "325 ± 132* mm^3"}, {"measurement": "tumor volume Mean ± SD", "setting": "NCI-H358 xenograft; d50", "result": "475 ± 224* mm^3"}, {"measurement": "tumor volume Mean ± SD", "setting": "NCI-H358 xenograft; d53", "result": "597 ± 304* mm^3"}, {"measurement": "tumor volume Mean ± SD", "setting": "NCI-H358 xenograft; d57", "result": "656 ± 274* mm^3"}, {"measurement": "tumor volume Mean ± SD", "setting": "NCI-H358 xenograft; d60", "result": "680 ± 279* mm^3"}, {"measurement": "tumor volume Mean ± SD", "setting": "NCI-H358 xenograft; d64", "result": "859 ± 326* mm^3"}, {"measurement": "tumor volume Mean ± SD", "setting": "NCI-H358 xenograft; d67", "result": "1076 ± 464* mm^3"}, {"measurement": "Inhibition of tumor growth (in words)", "setting": "NCI-H358 xenograft; lung (NCI-H358) xenograft", "result": "efficiently inhibited"}, {"measurement": "Binding (FACS, Mean fluorescence intensity (MFI)) CHO", "setting": "CHO parental cells", "result": 5}, {"measurement": "Induction of cell death (in words)", "setting": "[4]", "result": "substantial cell death"}, {"measurement": "Induction of cell death (in words)", "setting": "[5]", "result": "substantial cell death"}, {"measurement": "Induction of cell death (in words)", "setting": "[6]", "result": "substantial cell death"}, {"measurement": "Induction of cell death (in words)", "setting": "[7]", "result": "substantial cell death"}, {"measurement": "Induction of cell death (in words)", "setting": "[8]", "result": "substantial cell death"}, {"measurement": "Induction of cell death (in words)", "setting": "[9]", "result": "substantial cell death"}]}
